Data taken from patent US20190031761A1.

Tests used:
[1] = biological target: EGFRvIII recombinant protein (rhEGFRvIII protein) used in ELISA (human) (UniProt P00533); assay: concentration-dependent ELISA in triplicate, Prism nonlinear regression (apparent affinity)
[2] = biological target: T1, EGFRvIII-specific peptide (…); assay: as above
T1 sequence (peptide): LEEKKGNYVVTDHC

B1: B4A3 scFv protein (anti-EGFRvIII scFv) (scFv, part only; not given: scFv linker, domain order, tags, V domains shown, not shown: another chain or arm of the molecule; small tags and cut ends)
VH: EVQLLESGGGLVQPGGSLRLSCAASGFTFSNYYMSWVRQAPGKGLEWVSGTSPNGGSKYYADSVKGRFTISRDNSKNTLYLQMNSLRAEDTAVYYCAKGRRKLRATRFDYWGQGTLVTVSS
VL: QSVLTQPPSASGTPGQRVTISCTGSSSNIGNNYVSWYQQHPGTAPKLLIYSDSNRPSGVPDRFSGSKSGTSASLAISGLRSEDEADYYCATWDASLSAYVFGGGTKLTVL
Kd [1]: 2.35 nM | Kd [2]: 0.272 nM
